From US20130336893A1 (Sanofi, published 2013)
*1 amine or outer side, *2 acyl side, *3 side chain or, on linkers, in order; H or OH if unused. Where no end group is shown, it is not given here. [ ]: non-standard residue; d: D form. Cysteamide = C(CS[*:3])N[*:1]

B1: SEQ ID NO: (37) (peptide)
peptide: H[dS]QGTFTSDLSKQMDSRRAQEFIEWLKNGGPSSGAPPPS-NH2
modifications: N-terminus assumed
SMILES: CC[C@H](C)[C@H](NC(=O)[C@H](Cc1ccccc1)NC(=O)[C@H](CCC(=O)O)NC(=O)[C@H](CCC(N)=O)NC(=O)[C@H](C)NC(=O)[C@H](CCCNC(=N)N)NC(=O)[C@H](CCCNC(=N)N)NC(=O)[C@H](CO)NC(=O)[C@H](CC(=O)O)NC(=O)[C@H](CCSC)NC(=O)[C@H](CCC(N)=O)NC(=O)[C@H](CCCCN)NC(=O)[C@H](CO)NC(=O)[C@H](CC(C)C)NC(=O)[C@H](CC(=O)O)NC(=O)[C@H](CO)NC(=O)[C@@H](NC(=O)[C@H](Cc1ccccc1)NC(=O)[C@@H](NC(=O)CNC(=O)[C@H](CCC(N)=O)NC(=O)[C@@H](CO)NC(=O)[C@@H](N)Cc1c[nH]cn1)[C@@H](C)O)[C@@H](C)O)C(=O)N[C@@H](CCC(=O)O)C(=O)N[C@@H](Cc1c[nH]c2ccccc12)C(=O)N[C@@H](CC(C)C)C(=O)N[C@@H](CCCCN)C(=O)N[C@@H](CC(N)=O)C(=O)NCC(=O)NCC(=O)N1CCC[C@H]1C(=O)N[C@@H](CO)C(=O)N[C@@H](CO)C(=O)NCC(=O)N[C@@H](C)C(=O)N1CCC[C@H]1C(=O)N1CCC[C@H]1C(=O)N1CCC[C@H]1C(=O)N[C@@H](CO)C(N)=O
B2: SEQ ID NO: (31) (peptide)
peptide: H[dS]QGTFTSDLSKQMDSRRARDFIEWLKNGGPSSGAPPPS-NH2
modifications: N-terminus assumed
SMILES: CC[C@H](C)[C@H](NC(=O)[C@H](Cc1ccccc1)NC(=O)[C@H](CC(=O)O)NC(=O)[C@H](CCCNC(=N)N)NC(=O)[C@H](C)NC(=O)[C@H](CCCNC(=N)N)NC(=O)[C@H](CCCNC(=N)N)NC(=O)[C@H](CO)NC(=O)[C@H](CC(=O)O)NC(=O)[C@H](CCSC)NC(=O)[C@H](CCC(N)=O)NC(=O)[C@H](CCCCN)NC(=O)[C@H](CO)NC(=O)[C@H](CC(C)C)NC(=O)[C@H](CC(=O)O)NC(=O)[C@H](CO)NC(=O)[C@@H](NC(=O)[C@H](Cc1ccccc1)NC(=O)[C@@H](NC(=O)CNC(=O)[C@H](CCC(N)=O)NC(=O)[C@@H](CO)NC(=O)[C@@H](N)Cc1c[nH]cn1)[C@@H](C)O)[C@@H](C)O)C(=O)N[C@@H](CCC(=O)O)C(=O)N[C@@H](Cc1c[nH]c2ccccc12)C(=O)N[C@@H](CC(C)C)C(=O)N[C@@H](CCCCN)C(=O)N[C@@H](CC(N)=O)C(=O)NCC(=O)NCC(=O)N1CCC[C@H]1C(=O)N[C@@H](CO)C(=O)N[C@@H](CO)C(=O)NCC(=O)N[C@@H](C)C(=O)N1CCC[C@H]1C(=O)N1CCC[C@H]1C(=O)N1CCC[C@H]1C(=O)N[C@@H](CO)C(N)=O
B3: SEQ ID NO: (33) (peptide)
peptide: H[dS]QGTFTSDLSKQMDSRRAQDFIEWLKKGGPSSGEPPPS-NH2
modifications: N-terminus assumed
SMILES: CC[C@H](C)[C@H](NC(=O)[C@H](Cc1ccccc1)NC(=O)[C@H](CC(=O)O)NC(=O)[C@H](CCC(N)=O)NC(=O)[C@H](C)NC(=O)[C@H](CCCNC(=N)N)NC(=O)[C@H](CCCNC(=N)N)NC(=O)[C@H](CO)NC(=O)[C@H](CC(=O)O)NC(=O)[C@H](CCSC)NC(=O)[C@H](CCC(N)=O)NC(=O)[C@H](CCCCN)NC(=O)[C@H](CO)NC(=O)[C@H](CC(C)C)NC(=O)[C@H](CC(=O)O)NC(=O)[C@H](CO)NC(=O)[C@@H](NC(=O)[C@H](Cc1ccccc1)NC(=O)[C@@H](NC(=O)CNC(=O)[C@H](CCC(N)=O)NC(=O)[C@@H](CO)NC(=O)[C@@H](N)Cc1c[nH]cn1)[C@@H](C)O)[C@@H](C)O)C(=O)N[C@@H](CCC(=O)O)C(=O)N[C@@H](Cc1c[nH]c2ccccc12)C(=O)N[C@@H](CC(C)C)C(=O)N[C@@H](CCCCN)C(=O)N[C@@H](CCCCN)C(=O)NCC(=O)NCC(=O)N1CCC[C@H]1C(=O)N[C@@H](CO)C(=O)N[C@@H](CO)C(=O)NCC(=O)N[C@@H](CCC(=O)O)C(=O)N1CCC[C@H]1C(=O)N1CCC[C@H]1C(=O)N1CCC[C@H]1C(=O)N[C@@H](CO)C(N)=O
B4: SEQ ID NO: (35) (peptide)
peptide: H[dS]QGTFTSDLSKQMDSRRAQLFIEWLKNGGPSSGAPPPS-NH2
modifications: N-terminus assumed
SMILES: CC[C@H](C)[C@H](NC(=O)[C@H](Cc1ccccc1)NC(=O)[C@H](CC(C)C)NC(=O)[C@H](CCC(N)=O)NC(=O)[C@H](C)NC(=O)[C@H](CCCNC(=N)N)NC(=O)[C@H](CCCNC(=N)N)NC(=O)[C@H](CO)NC(=O)[C@H](CC(=O)O)NC(=O)[C@H](CCSC)NC(=O)[C@H](CCC(N)=O)NC(=O)[C@H](CCCCN)NC(=O)[C@H](CO)NC(=O)[C@H](CC(C)C)NC(=O)[C@H](CC(=O)O)NC(=O)[C@H](CO)NC(=O)[C@@H](NC(=O)[C@H](Cc1ccccc1)NC(=O)[C@@H](NC(=O)CNC(=O)[C@H](CCC(N)=O)NC(=O)[C@@H](CO)NC(=O)[C@@H](N)Cc1c[nH]cn1)[C@@H](C)O)[C@@H](C)O)C(=O)N[C@@H](CCC(=O)O)C(=O)N[C@@H](Cc1c[nH]c2ccccc12)C(=O)N[C@@H](CC(C)C)C(=O)N[C@@H](CCCCN)C(=O)N[C@@H](CC(N)=O)C(=O)NCC(=O)NCC(=O)N1CCC[C@H]1C(=O)N[C@@H](CO)C(=O)N[C@@H](CO)C(=O)NCC(=O)N[C@@H](C)C(=O)N1CCC[C@H]1C(=O)N1CCC[C@H]1C(=O)N1CCC[C@H]1C(=O)N[C@@H](CO)C(N)=O

Legend:
human GLP-1 receptor = human GLP-1 receptor (human, UniProt P43220 24-463); test: cell-based or functional assay
human glucagon receptor = human glucagon receptor (human, UniProt P47871 26-477); test: cell-based or functional assay
human glucagon receptor, sequence (P47871 26-477): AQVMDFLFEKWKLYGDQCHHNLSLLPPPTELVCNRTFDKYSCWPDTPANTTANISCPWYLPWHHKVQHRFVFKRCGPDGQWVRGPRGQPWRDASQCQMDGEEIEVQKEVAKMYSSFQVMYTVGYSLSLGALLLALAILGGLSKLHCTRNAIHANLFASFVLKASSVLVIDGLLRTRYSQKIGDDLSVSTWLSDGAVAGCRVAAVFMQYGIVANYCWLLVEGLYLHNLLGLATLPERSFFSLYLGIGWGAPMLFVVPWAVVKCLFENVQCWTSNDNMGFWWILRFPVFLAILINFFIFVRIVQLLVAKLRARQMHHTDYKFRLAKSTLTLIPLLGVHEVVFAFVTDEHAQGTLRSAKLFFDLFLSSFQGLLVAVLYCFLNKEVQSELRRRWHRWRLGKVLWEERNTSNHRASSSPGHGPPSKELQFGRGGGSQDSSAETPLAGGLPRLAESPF

Binder	EC50 hGLP-1R (cAMP formation) (human GLP-1 receptor) [nM]	EC50 hGlucagonR (cAMP formation) (human glucagon receptor) [nM]
B1	0.0759	0.0582
HSQGTFTSDLSKQMDSRRAQDFIEWLKNGGPSSGAPPPS-{NH‑CH2‑CH2‑S‑tBu} [SEQ ID NO: (36)]	0.0189	0.0458
HGQGTFTSDLSKQMDSRRAQDFIEWLKNGGPSSGAPPPS-NH2 [SEQ ID NO: (11)]	0.0254	2.32
HAQGTFTSDLSKQMDSRRAQDFIEWLKNGGPSSGAPPPS-NH2 [SEQ ID NO: (39)]	0.0046	0.683
HSQGTFTSDLSKQMDSRRAQDFIEWLKNGGPSSGAPPPS-{NH‑(CH2)5‑OH} [SEQ ID NO: (50)]	0.014	0.0225
H[dA]QGTFTSDLSKQMDSRRAQDFIEWLKNGGPSSGAPPPS-NH2 [SEQ ID NO: (40)]	0.0081	1.18
B2	0.0109	0.132
HSQGTFTSDLSKQMDSRRAQDFIEWLKNGGPSSGAPPPS-Cysteamide [SEQ ID NO: (8)]	0.0203	0.0351
B3	0.138	0.347
B4	0.0894	0.043
